The record followed here is US20060025342A1 (OSTEOTROPHIN, published 2006).

Read-outs that look alike come from different tables or passages of the source. Non-standard residues stand in square brackets, D forms with d. No end group written: not given here. Nle = CCCC[C@H](N)C(=O)O

Experiment [1] has as its target T1, human PTH/PTHrP receptor (PTH1 receptor) (human, UniProt Q03431 27-593).
T1 sequence (looked up): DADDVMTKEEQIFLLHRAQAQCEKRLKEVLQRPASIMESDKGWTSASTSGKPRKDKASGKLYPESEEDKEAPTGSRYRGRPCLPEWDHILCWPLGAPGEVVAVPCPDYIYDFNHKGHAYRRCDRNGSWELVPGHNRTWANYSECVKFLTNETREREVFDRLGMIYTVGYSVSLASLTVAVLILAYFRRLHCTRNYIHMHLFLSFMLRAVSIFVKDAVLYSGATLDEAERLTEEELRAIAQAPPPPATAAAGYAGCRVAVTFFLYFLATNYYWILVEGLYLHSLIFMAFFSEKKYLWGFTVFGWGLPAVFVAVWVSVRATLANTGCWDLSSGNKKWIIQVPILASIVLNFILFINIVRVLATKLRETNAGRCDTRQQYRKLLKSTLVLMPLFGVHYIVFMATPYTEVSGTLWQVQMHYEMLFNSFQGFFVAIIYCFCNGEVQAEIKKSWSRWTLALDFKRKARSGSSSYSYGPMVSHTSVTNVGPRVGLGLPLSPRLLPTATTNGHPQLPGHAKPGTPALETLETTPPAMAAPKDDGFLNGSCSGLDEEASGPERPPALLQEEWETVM
Description: cell-based or functional assay.

The target in experiment [2] is T1, human PTH/PTHrP receptor (PTH1 receptor). Briefly: competition of 125I-(Tyr36)hPTHrP-(1-36)NH2 binding, SaOS-2 membranes, 30 C, 60 min.
For experiment [3] the target is unchanged. Description: competition of 125I-(Tyr36)hPTHrP-(1-36)NH2 binding, human renal cortical membranes, 30 C, 30 min.
For experiment [4] the target is unchanged. Description: cell-based or functional assay. The source holds these as a separate data set.
The target is the same in experiment [5]. Description: cell-based or functional assay. The source holds these as a separate data set.
For experiment [6] the target is unchanged. Briefly: cell-based or functional assay. The source holds these as a separate data set.
Experiment [7] has the same target. Briefly: competition of 125I-(Tyr36)hPTHrP-(1-36)NH2 binding, intact SaOS-2 cells, 15 C, 150 min.
Description: (§3) Binding studies were conducted at 15° C. in the presence of chymostatin (100 μg/ml) and bacitracin (200 μg/ml). […] The incubation time of 150 min was therefore used for competitive binding studies.
In experiment [8] the target is T2, canine renal PTH/PTHrP receptor (canine, UniProt Q9TU31 29-595).
T2 construct: whole, on cells; Native receptor in renal cortical membranes of adult mongrel dogs, not intact cells; also called canine renal receptors; receptor in canine renal cortical membranes (CRCM)
T2 sequence (looked up): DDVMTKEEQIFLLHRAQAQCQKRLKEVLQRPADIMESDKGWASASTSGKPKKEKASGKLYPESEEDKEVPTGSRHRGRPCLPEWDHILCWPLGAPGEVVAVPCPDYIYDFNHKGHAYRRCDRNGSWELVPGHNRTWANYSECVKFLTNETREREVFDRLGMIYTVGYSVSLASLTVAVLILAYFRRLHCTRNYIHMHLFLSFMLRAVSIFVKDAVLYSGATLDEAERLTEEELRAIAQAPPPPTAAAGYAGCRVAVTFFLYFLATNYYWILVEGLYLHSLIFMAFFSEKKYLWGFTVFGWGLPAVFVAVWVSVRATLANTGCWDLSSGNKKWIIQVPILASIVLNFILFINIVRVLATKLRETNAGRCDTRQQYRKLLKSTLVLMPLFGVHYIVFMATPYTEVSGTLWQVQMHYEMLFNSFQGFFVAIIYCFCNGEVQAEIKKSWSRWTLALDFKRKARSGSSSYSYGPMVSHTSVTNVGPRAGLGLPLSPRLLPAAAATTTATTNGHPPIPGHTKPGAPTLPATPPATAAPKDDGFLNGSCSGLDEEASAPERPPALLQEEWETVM
Briefly: competition of 125I-[Nle8,18,Tyr34]hPTH-(1-34)amide binding, canine renal cortical membranes, 20 C. As to the method:
(§1) Binding assays were conducted in siliconized 12×75 mm borosilicate glass test tubes at 20° C. in a final volume of 0.2 ml. […] Binding was initiated by adding 50 μg membrane. At the end of the incubation periods described, 50 μl triplicate aliquots were layered onto 300 μl of iced binding buffer containing 1.0% BSA in 500 μl polypropylene tubes. The tubes were centrifuged at approximately 16,000×g for three min at 4° C. in a microcentrifuge. The supernatant was aspirated and the tip of the tube containing the membrane-associated radioligand was cut off. Radioactivity in both the pellet and supernatant was measured.
(§2) Dissociation constants (Kd) were determined by Scatchard analysis of the data obtained from competitive binding experiments using radioligand and increasing concentrations of unlabeled ligand. […] Statistical differences were assessed by paired Student's t test. […] Significance was determined using a partial F-test.

Experiment [9] has as its target T2, canine renal PTH/PTHrP receptor. Description: homologous competition of 125I-[Nle8,18,Tyr34]hPTH-(1-34)amide binding, canine renal cortical membranes, 20 C. As to the method:
as §1, §2

The target is the same in experiment [10]. Briefly: competition of 125I-[Tyr36]PTHrP-(1-36)amide binding, canine renal cortical membranes, 20 C; printed as binding dissociation constant, heterologous competitor (Ki from IC50 by paragraph 214). The method, then: as §1, §2
In experiment [11] the target is T1, human PTH/PTHrP receptor (PTH1 receptor). Briefly: competition binding, human RCM and SaOS-2 membranes.
Description: (§4) Human RCM were added to a final concentration of 90 μg/ml. […] The incubation time of 30 min was used for subsequent equilibrium binding competition studies.
(§5) The binding assay for SaOS-2 membranes was conducted as for human RCM.
IC₅₀ values for competitive binding experiments and EC₅₀ values for adenylate cyclase dose response curves were determined from the concentration of peptide yielding 50% of the maximal response. Statistical differences were assessed by paired and unpaired two-tailed Student's t test.
The target is the same in experiment [12]. Briefly: competition of 125I-(Tyr36)hPTHrP-(1-36)NH2 binding, human renal cortical membranes, 30 C, 30 min.
The target is the same in experiment [13]. Described as above. This is another data set of the same source.
For experiment [14] the target is unchanged. Description: competition of 125I-(Tyr36)hPTHrP-(1-36)NH2 binding, human RCM, SaOS-2 membranes, intact SaOS-2 cells.
Description: as §4, §5, §3
The target of experiment [15] is T2, canine renal PTH/PTHrP receptor. Briefly: competition of 125I-[Nle8,18,Tyr34]hPTH-(1-34)amide binding, canine renal cortical membranes, 20 C; Ki from IC50.
Description: (§6) Dissociation constants (Kd) were determined by Scatchard analysis of the data obtained from competitive binding experiments using radioligand and increasing concentrations of unlabeled ligand. […] Statistical differences were assessed by paired Student's t test. […] Computer fits of a one- or two-binding site model were compared, indicating the statistically preferred model. Significance was determined using a partial F-test.
(§7) The Kd values were determined by Scatchard analysis, and the Kᵢ values were derived from the IC₅₀ values.
The target is the same in experiment [16]. Briefly: cell-based or functional assay.
Experiment [17] has the same target. Description: competition of 125I-[Tyr36]PTHrP-(1-36)amide binding, canine renal cortical membranes, 20 C; Ki from IC50.
Description: as §6, §7
Experiment [18] has the same target. Briefly: competition of 125I-[Tyr36]PTHrP-(1-36)amide binding, canine renal cortical membranes, 20 C. As to the method:
as §1, §2

The IC50 is the concentration at which inhibition is half-maximal. Low values mean greater potency, high ones weaker potency. In [1], “(Tyr^36) chicken (c) PTHrP-(1-36)amide (from UniProt P17251 38-73) (peptide)” registered an Adenylate cyclase (EC50), SaOS cells (intact, 15 C, 60 min) of 0.8 nM; an Adenylate cyclase (EC50), SaOS membranes of 0.87 nM; an Adenylate cyclase (EC50), kidney membranes (human RCM) of 0.49 nM. Besides, the IC50 in experiment [2] was found to be 1.1 nM. For the same molecule, the IC50 in experiment [3] was determined as 0.47 nM.

B1: rat PTH-(1-34) (peptide, UniProt P04089 32-65, looked up)
peptide: AVSEIQLMHNLGKHLASVERMQWLRKKLQDVHNF
notes: range 1-34; Synthetic, Bachem; also called rPTH-(1-34); rat (r)PTH-(1-34)
B1: in experiment [4], the “Adenylate cyclase (EC50), SaOS cells (intact, 15 C, 60 min)” value (“Adenylate cyclase (EC50), SaOS cells” below) amounted to 0.9 nM and the “Adenylate cyclase (EC50), kidney membranes (human RCM)” value (from here on “Adenylate cyclase … (human RCM)”) turned out to be 0.05 nM. In experiment [5], the “Adenylate cyclase (EC50), SaOS membranes” value worked out at 0.09 nM and the “Adenylate cyclase … (human RCM)” value was 0.05 nM. Besides, in experiment [6], the “adenylate cyclase potency against hPTHrP-(1-36), human RCM and SaOS-2 membranes” value came out at 10 fold. In [7], the IC50 worked out at 0.9 nM.

B2: [Nle^8,18,Tyr^34]hPTH-(1-34)amide (peptide)
peptide: SVSEIQL[Nle]HNLGKHLNS[Nle]ERVEWLRKKLQDVHNY-NH2
notes: also called NNT-hPTH-(1-34); [Nle^8,18, Tyr^34]hPTH-(1-34)NH2
In general, Ki refers to the equilibrium dissociation constant of an inhibitor or competing ligand from its target. As to B2, the “fold more potent than PTHrP-(1-36) in inhibiting binding” value in experiment [8] was below 2 fold. The values for the Ki in [9] and in [10] were 7.5 nM and 8.5 nM, respectively.

B3: bPTH-(1-84) (ligand, bovine, UniProt P01268 32-115, looked up)
chain: AVSEIQFMHNLGKHLSSMERVEWLRKKLQDVHNFVALGASIAYRDGSSQRPRKKEDNVLVESHQKSLGEADKADVDVLIKAKPQ
notes: range 1-84; From the National Hormone and Pituitary Program (NIDDK); also called bovine PTH-(1-84)
Take B3: the IC50 in experiment [2] is 8 nM; in experiment [12], 5.1 nM; in experiment [13], 5.1 nM; in experiment [7] it was 17.5 nM. Moreover, the “fold lower relative affinity than the amino-terminal analogs” value in [11] is around 10 fold. Further, the “Adenylate cyclase (EC50), SaOS cells” value in experiment [4] stood at 7.7 nM. For the same molecule, the “Adenylate cyclase … (human RCM)” value in experiment [4] and in [5] was 0.59 nM in each case. Moreover, the “Adenylate cyclase (EC50), SaOS membranes” value in experiment [5] was 2.4 nM.

B4: hPTHrP-(37-74) (peptide, UniProt P12272 73-110, looked up)
peptide: RATSEVSPNSKPSPNTKNHPVRFGSDDEGRYLTQETNK
notes: range 73-110; Solid phase synthesis
As to B4, the binding result in [14] is listed as “no binding”.

B5: (Nle^8,18, Tyr^34)hPTH-(1-34) (peptide)
peptide: SVSEIQL[Nle]HNLGKHLNS[Nle]ERVEWLRKKLQDVHNY
For B5, the IC50 amounted to 2 nM in experiment [2], 3.6 nM in [12], 3.6 nM in [13] and 2.8 nM in [7]. Moreover, in experiment [4], the “Adenylate cyclase (EC50), SaOS cells” value was found to be 2.3 nM. The “Adenylate cyclase … (human RCM)” value in experiment [4] and in experiment [5] was 1.1 nM each time. The “Adenylate cyclase (EC50), SaOS membranes” value in [5] was found to be 1.9 nM.

B6: bovine PTH-(1-34) (peptide, UniProt P01268 32-65, looked up)
peptide: AVSEIQFMHNLGKHLSSMERVEWLRKKLQDVHNF
notes: range 1-34; Synthetic, Bachem; also called bPTH-(1-34); bovine (b)PTH-(1-34)
For B6, the Ki in [15] is 6.1 nM; in experiment [17] it was 10.5 nM. Further, the “Adenylate cyclase (EC50), SaOS cells” value in experiment [4] came out at 1.2 nM. Moreover, the “Adenylate cyclase (EC50), SaOS membranes” value in [5] turned out to be 0.5 nM. In addition, the “adenylate cyclase potency against PTHrP-(1-36), standard assay (30 min, 30 C)” value in experiment [16] was 6 fold. Moreover, the “adenylate cyclase stimulation against PTHrP-(1-36), binding assay conditions (20 C, 20 min, bacitracin)” value in experiment [16] is 15 fold.

B7: PTHrP-(49-74) (peptide, UniProt P12272 85-110, looked up)
peptide: SPNTKNHPVRFGSDDEGRYLTQETNK
notes: range 49-74; Solid phase synthesis
B7: in experiment [18], the binding result is on record as “no binding”.

B8: Chicken PTH-(1-34)amide (peptide, UniProt P15743 32-65, looked up)
peptide: SVSEMQLMHNLGEHRHTVERQDWLQMKLQDVHSA-NH2
notes: range 1-34; Solid phase synthesis; also called cPTH-(1-34)NH2
Regarding B8, the IC50 in [2] was 20 nM; in [12], 21.5 nM; in [13], 21.5 nM. Besides, the “Adenylate cyclase (EC50), SaOS cells” value in experiment [4] was found to be 3.9 nM. For the same molecule, the “Adenylate cyclase … (human RCM)” value in experiment [4] and in experiment [5] was 5.4 nM each time. In addition, the “Adenylate cyclase (EC50), SaOS membranes” value in [5] stood at 16.3 nM.

B9: (Cys^5,Trp^11,Gly^13)PTHrP-(5-18) (peptide)
peptide: CQLLHDWGGSIQDL
notes: also called P1-peptide; P1 peptide
For the molecule B9, in experiment [18], the binding result is listed as “no binding”.
